Experimental data published in patent US20060058224A1, “Methods of treating obesity with combination therapeutics” (priority 2004, published 2006).

What was measured:
[1] = system: DIO (Diet-Induced Obesity; AKR/J mice fed a high fat diet) mice; test: 24 h food intake in DIO mice over the 21 day study; type: in vivo, mouse
Description: FIG. 2 is a graph of 24 h food intake monitored for the duration of the study for the DIO mice treated as described in the legend of FIG. 1.
(§1) A study was conducted to determine the effect of the combination of phentermine and Axokine™ on body weight and food intake in a mouse model of obesity. 30 DIO (Diet-Induced Obesity; AKR/J mice fed a high fat diet) mice were divided into 5 equal groups (n=6 per group). Four groups were treated daily in the afternoon starting on Day 0 as follows: Group A (control): 0.9% NaCl (4 μl/g, intraperitoneal (IP) injection) and placebo (4 μl/g subcutaneous (SC) injection); Group B: Axokine™ (0.03 mg/kg, SC); Group C: phentermine (10.0 mg/kg, IP); Group D: Axokine™ (0.03 mg/kg, SC)+phentermine (10.0 mg/kg, IP). The […] group, Group E was pair fed to Group B; each animal in this group received the average amount of food the Axokine™ treated animals consumed the previous day. This treatment paradigm continued until Day 21 (last injection on Day 20). […] Animals who were pair-fed to the Axokine™ group, lost weight at a rate similar to that of the Axokine™ group up to Day 11 of the study. After this time, their weight loss reached a plateau.
After the second day of the study, control animals resumed their typical eating pattern, consuming approximately 4 g of food a day. Animals who received Axokine™ or were pair-fed, maintained this decreased food intake of about 2.75 g per day until Day 12 when they began to consume more food (3.5 g at the end of the study).

[2] = system: DIO (Diet-Induced Obesity; AKR/J mice fed a high fat diet) mice; test: Effect on body weight in a mouse model of obesity (DIO mice), daily treatment Day 0 to Day 21; type: in vivo; details: Axokine 0.03 mg/kg SC, phentermine 10.0 mg/kg IP; for loss of starting body weight: after 21 days of daily treatment, control lost 2%; for body weight change in words (FIG. 1): daily administration
Description: FIG. 1 is a graph of the change in body weight as a percentage of weight at Day 0 from Day 0 to Day 21 food intake (24 hours) over time (Days —1 to 21) for diet-induced obese (DIO) mice treated with 0.9% NaCl (4 μl/g, intraperitoneal (IP) injection) and placebo (4 μl/g subcutaneous (SC) injection; Group A: Control ═X); Axokine™ (0.03 mg/kg, SC; Group B=⋄); phentermine (10.0 mg/kg, IP; Group C=□); Axokine™ (0.03 mg/kg, SC) and phentermine (10.0 mg/kg, IP; Group D=□); and pair fed to group B=⋄).
as §1

Molecule: CC(C)(N)Cc1ccccc1 [phentermine, reference compound]
- food intake in words (FIG. 2) ([1]; daily treatment, Axokine 0.03 mg/kg SC, phentermine 10.0 mg/kg IP): decreased food intake relative to control
- loss of starting body weight [2]: about 15%
- body weight change in words (FIG. 1) [2]: significant decrease in body weight relative to control animals

B1: Axokine™: modified ciliary neurotrophic factor (CNTF) molecule, hCNTF C17A Q63R Δ15 (SEQ ID NO:3 or SEQ ID NO:4) (protein)
chain: MAFTEHSPLTPHRRDLASRSIWLARKIRSDLTALTESYVKHQGLNKNINLDSADGMPVASTDRWSELTEAERLQENLQAYRTFHVLLARLLEDQQVHFTPTEGDFHQAIHTLLLQVAAFAYQIEELMILLEYKIPRNEADGMPINVGDGGLFEKKLWGLKVLQELSQWTVRSIHDLRFISSHQTG
- 24 h food intake at the end of the study ([1]; Axokine 0.03 mg/kg SC daily, end of the study (Day 21)): 3.5 g
- 24 h food intake ([1]; Axokine 0.03 mg/kg SC daily, from Day 2 until Day 12, control approximately 4 g a day): about 2.75 g per day
- loss of starting body weight [2]: approximately 19%
- body weight change in words (FIG. 1) [2]: significant decrease in body weight relative to control animals
